Laboratory results: patent US20260115256A1 (HANGZHOU SCIWIND BIOSCIENCES, published 2026)
*1 amine or outer side, *2 acyl side, *3 side chain or, on linkers, in order; H or OH if unused. Bridges are numbered along the chain shown (N, C = ends). Primed or numbered codes have the meaning given here. Where no end group is shown, it is not given here. Side-chain parts run from the residue outwards. [ ]: non-standard residue; d: D form. The star is where a group is joined. C20 diacid = O=C(O)CCCCCCCCCCCCCCCCCCC(=O)*; γGlu = O=C(O)[C@H](CCC(=O)[*:2])N[*:1]; βAsp = O=C(O)[C@H](CC(=O)[*:2])N[*:1]; Hyp = O=C(O)[C@@H]1C[C@@H](O)CN1; Cit = NC(=O)NCCC[C@H](N)C(=O)O; Orn = NCCC[C@H](N)C(=O)O; Dab = NCC[C@H](N)C(=O)O; Inp′ = not defined here; Trx′ = not defined here; AOC = not defined here; Dap = NC[C@H](N)C(=O)O; PEG = not defined here; AEEA = NCCOCCOCC(=O)O; Sar = CNCC(=O)O

T1: human amylin receptor (AMY3) on CHO-K1/Ga15/AMY3 cells (human, UniProt P30988 25-474; O60896 24-148)
T1 sequence (looked up) 1: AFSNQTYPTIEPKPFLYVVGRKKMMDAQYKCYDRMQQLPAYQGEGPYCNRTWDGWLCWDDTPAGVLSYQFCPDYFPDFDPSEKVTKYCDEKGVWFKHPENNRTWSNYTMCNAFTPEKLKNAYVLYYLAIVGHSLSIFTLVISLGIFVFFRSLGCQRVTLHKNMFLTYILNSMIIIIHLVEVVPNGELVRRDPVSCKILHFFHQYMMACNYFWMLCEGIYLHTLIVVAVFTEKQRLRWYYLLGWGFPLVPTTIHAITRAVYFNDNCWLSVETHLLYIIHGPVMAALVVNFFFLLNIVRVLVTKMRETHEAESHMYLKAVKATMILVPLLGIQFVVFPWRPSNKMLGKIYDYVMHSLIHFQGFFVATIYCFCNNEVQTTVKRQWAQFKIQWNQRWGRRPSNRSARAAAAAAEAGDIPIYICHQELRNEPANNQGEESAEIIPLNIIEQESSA
T1 sequence (looked up) 2: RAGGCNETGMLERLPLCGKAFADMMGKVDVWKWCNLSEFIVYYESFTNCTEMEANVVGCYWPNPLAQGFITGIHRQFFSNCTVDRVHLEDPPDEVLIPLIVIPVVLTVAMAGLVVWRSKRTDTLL

B1: PD001 (peptide)
peptide: RCNTATCATQRLAEFLRHSSK([AEEA-AEEA-γGlu-C20 diacid])NLGPILPPTNVGSNTP-NH2
modifications: disulfide 2-7 (inferred)
B2: PD160 (peptide)
peptide: {C20 diacid-γGlu}-KCNTATCATQRLADFLRHSSNNLKPILPPTNVGSNTP-NH2
modifications: disulfide 2-7 (inferred)
B3: PD161 (peptide)
peptide: {C20 diacid-γGlu}-KCNTATCATQRLADFLRHSSNNLRPILPPTNVGSNTP-NH2
modifications: disulfide 2-7 (inferred)
B4: PD162 (peptide)
peptide: {C20 diacid-γGlu}-KCNTATCATQRLADFLRHSSNNLHPILPPTNVGSNTP-NH2
modifications: disulfide 2-7 (inferred)
B5: PD163 (peptide)
peptide: {C20 diacid-γGlu}-KCNTATCATQRLADFLRHSSNNLPPILPPTNVGSNTP-NH2
modifications: disulfide 2-7 (inferred)
B6: PD164 (peptide)
peptide: {C20 diacid-γGlu}-KCNTATCATQRLADFLRHSSNNLDPILPPTNVGSNTP-NH2
modifications: disulfide 2-7 (inferred)
B7: PD165 (peptide)
peptide: {C20 diacid-γGlu}-KCNTATCATQRLADFLRHSSNNLNPILPPTNVGSNTP-NH2
modifications: disulfide 2-7 (inferred)
B8: PD166 (peptide)
peptide: {C20 diacid-γGlu}-KCNTATCATQRLADFLRHSSNNLSPILPPTNVGSNTP-NH2
modifications: disulfide 2-7 (inferred)
B9: PD167 (peptide)
peptide: {C20 diacid-γGlu}-KCNTATCATQRLADFLRHSSNNL[aK]PILPPTNVGSNTP-NH2
modifications: disulfide 2-7 (inferred)
B10: PD168 (peptide)
peptide: {C20 diacid-γGlu}-KCNTATCATQRLADFLRHSSNNL[Dap]PILPPTNVGSNTP-NH2
modifications: disulfide 2-7 (inferred)
B11: PD169 (peptide)
peptide: {C20 diacid-γGlu}-KCNTATCATQRLADFLRHSSNNL[Dab]PILPPTNVGSNTP-NH2
modifications: disulfide 2-7 (inferred)
B12: PD041 (peptide)
peptide: RCNTATCATQRLAEFLRHSSNNLK([γGlu-C20 diacid])PILPPTNVGSGT[Hyp]-NH2
modifications: disulfide 2-7 (inferred)
B13: PD170 (peptide)
peptide: {C20 diacid-γGlu}-KCNTATCATQRLADFLRHSSNNL[Orn]PILPPTNVGSNTP-NH2
modifications: disulfide 2-7 (inferred)
B14: PD171 (peptide)
peptide: {C20 diacid-γGlu}-KCNTATCATQRLADFLRHSSNNL[Cit]PILPPTNVGSNTP-NH2
modifications: disulfide 2-7 (inferred)
B15: PD172 (peptide)
peptide: {C20 diacid-γGlu}-KCNTATCATQRLADFLRHSSNNL[Sar]PILPPTNVGSNTP-NH2
modifications: disulfide 2-7 (inferred)
B16: PD173 (peptide)
peptide: {C20 diacid-γGlu}-KCNTATCATQRLADFLRHSSNNL[Trx′]PILPPTNVGSNTP-NH2
modifications: disulfide 2-7 (inferred); reading uncertain
B17: PD174 (peptide)
peptide: {C20 diacid-γGlu}-KCNTATCATQRLADFLRHSSNNL[AOC]PILPPTNVGSNTP-NH2
modifications: disulfide 2-7 (inferred); reading uncertain
B18: PD176 (peptide)
peptide: {C20 diacid-AEEA-AEEA-γGlu}-KCNTATCATQRLADFLRHSSNNLKPILPPTNVGSNT[Hyp]-NH2
modifications: disulfide 2-7 (inferred)
B19: PD177 (peptide)
peptide: {C20 diacid-Trx′-AEEA-AEEA}-KCNTATCATQRLADFLRHSSNNLKPILPPTNVGSNT[Hyp]-NH2
modifications: disulfide 2-7 (inferred); reading uncertain
B20: PD178 (peptide)
peptide: {C20 diacid-AEEA-AEEA-Trx′}-KCNTATCATQRLADFLRHSSNNLKPILPPTNVGSNT[Hyp]-NH2
modifications: disulfide 2-7 (inferred); reading uncertain
B21: PD179 (peptide)
peptide: {C20 diacid-Inp′-AEEA-AEEA}-KCNTATCATQRLADFLRHSSNNLKPILPPTNVGSNT[Hyp]-NH2
modifications: disulfide 2-7 (inferred)
B22: PD180 (peptide)
peptide: {C20 diacid-AEEA-AEEA-Inp′}-KCNTATCATQRLADFLRHSSNNLKPILPPTNVGSNT[Hyp]-NH2
modifications: disulfide 2-7 (inferred)
B23: PD042 (peptide)
peptide: RCNTATCATQRLADFLRHSSNNLK([γGlu-C20 diacid])PILPPTNVGSNTP-NH2
modifications: disulfide 2-7 (inferred)
B24: PD181 (peptide)
peptide: {C20 diacid}-D[AEEA][AEEA]KCNTATCATQRLADFLRHSSNNLKPILPPTNVGSNT[Hyp]-NH2
modifications: disulfide 5-10 (inferred)
B25: PD182 (peptide)
peptide: {C20 diacid-AEEA-AEEA}-DKCNTATCATQRLADFLRHSSNNLKPILPPTNVGSNT[Hyp]-NH2
modifications: disulfide 3-8 (inferred)
B26: PD183 (peptide)
peptide: {C20 diacid-βAsp-AEEA-AEEA}-KCNTATCATQRLADFLRHSSNNLKPILPPTNVGSNT[Hyp]-NH2
modifications: disulfide 2-7 (inferred)
B27: PD184 (peptide)
peptide: {C20 diacid-AEEA-AEEA-βAsp}-KCNTATCATQRLADFLRHSSNNLKPILPPTNVGSNT[Hyp]-NH2
modifications: disulfide 2-7 (inferred)
B28: PD186 (peptide)
peptide: {C20 diacid-PEG-PEG-PEG-PEG-PEG-PEG-PEG-PEG-γGlu}-KCNTATCATQRLADFLRHSSNNLKPILPPTNVGSNT[Hyp]-NH2
modifications: disulfide 2-7 (inferred); reading uncertain
B29: PD187 (peptide)
peptide: {C20 diacid-AEEA-AEEA}-KCNTATCATQRLADFLRHSSNNLKPILPPTNVGSNTX-NH2
modifications: disulfide 2-7 (inferred); not fully specified (residue 37); printed as KCNTATCATQRLADFLRHSSNNLKPILPPTNVGSNT-trans-Hyp-NH2
B30: PD188 (peptide)
peptide: {C20 diacid-AEEA-AEEA-γGlu}-KCNTATCATQRLADFLRHSSNNLKPILPPTNVGSNTP-NH2
modifications: disulfide 2-7 (inferred)
B31: PD189 (peptide)
peptide: {C20 diacid-Trx′-AEEA-AEEA}-KCNTATCATQRLADFLRHSSNNLKPILPPTNVGSNTP-NH2
modifications: disulfide 2-7 (inferred); reading uncertain; also: printed as N-terminal: 2*AEEA + Trx + C20 diacid; C-terminal NH2
B32: PD190 (peptide)
peptide: {C20 diacid-AEEA-AEEA-Trx′}-KCNTATCATQRLADFLRHSSNNLKPILPPTNVGSNTP-NH2
modifications: disulfide 2-7 (inferred); reading uncertain; also: printed as N-terminal: Trx + 2*AEEA + C20 diacid; C-terminal NH2
B33: PD191 (peptide)
peptide: {C20 diacid-Inp′-AEEA-AEEA}-KCNTATCATQRLADFLRHSSNNLKPILPPTNVGSNTP-NH2
modifications: disulfide 2-7 (inferred)

What follows are binders tested against T1, human amylin receptor (AMY3) on … (assay: cell-based or functional assay).

B1 and B2 are within 1.5-fold of each other in “EC50, CRE-luciferase assay” value: 0.042 nM for the first, 0.035 nM for the second.

B3 and B4 are within 1.5-fold of each other in “EC50, CRE-luciferase assay” value: 0.026 nM for the first, 0.035 nM for the second.

B5 and B6 are within 1.5-fold of each other in “EC50, CRE-luciferase assay” value: 0.084 nM for the first, 0.111 nM for the second.

B7 and B8 are within 1.5-fold of each other in “EC50, CRE-luciferase assay” value: 0.05 nM for the first, 0.054 nM for the second.

B9 and B10 are within 1.5-fold of each other in “EC50, CRE-luciferase assay” value: 0.05 nM for the first, 0.041 nM for the second.

First: B11
Second: B12
The “EC50, CRE-luciferase assay” value of the first is 6.6-fold lower: 0.039 nM for the first, 0.259 nM for the second.

B13 and B14 are within 1.5-fold of each other in “EC50, CRE-luciferase assay” value: 0.041 nM for the first, 0.053 nM for the second.

B15 and B16 are within 1.5-fold of each other in “EC50, CRE-luciferase assay” value: 0.075 nM for the first, 0.064 nM for the second.

First: B17
Second: B18
The “EC50, CRE-luciferase assay” value of the first is 1.6-fold higher: 0.046 nM for the first, 0.029 nM for the second.

B19 and B20 are within 1.5-fold of each other in “EC50, CRE-luciferase assay” value: 0.024 nM for the first, 0.017 nM for the second.

B21 and B22 are within 1.5-fold of each other in “EC50, CRE-luciferase assay” value: 0.017 nM for the first, 0.016 nM for the second.

Going from B23 to B24, the “EC50, CRE-luciferase assay” value falls from 0.111 nM to 0.022 nM (5-fold).

B25 and B26 are within 1.5-fold of each other in “EC50, CRE-luciferase assay” value: 0.034 nM for the first, 0.04 nM for the second.

B27 and B28 are within 1.5-fold of each other in “EC50, CRE-luciferase assay” value: 0.037 nM for the first, 0.052 nM for the second.

Compared with B29, B30 is 1.6-fold higher in “EC50, CRE-luciferase assay” value: 0.016 nM for the first, 0.025 nM for the second.

First: B31
Second: B32
The “EC50, CRE-luciferase assay” value of the first is 1.7-fold higher: 0.029 nM for the first, 0.017 nM for the second.

For B33, the “EC50, CRE-luciferase assay” value was 0.061 nM.
